Experimental data reported in US20250277030A1, “ANTI-NAPI2B ANTIBODIES AND METHODS OF USE” (Zymeworks BC Inc., priority 2022, published 2025).

Target: T1, mouse NaPi2b (Mus musculus, UniProt Q9DBP0)
T1 construct: expressed in transfected cells; host or cells: HEK293-6e
T1 sequence (Q9DBP0 1-697): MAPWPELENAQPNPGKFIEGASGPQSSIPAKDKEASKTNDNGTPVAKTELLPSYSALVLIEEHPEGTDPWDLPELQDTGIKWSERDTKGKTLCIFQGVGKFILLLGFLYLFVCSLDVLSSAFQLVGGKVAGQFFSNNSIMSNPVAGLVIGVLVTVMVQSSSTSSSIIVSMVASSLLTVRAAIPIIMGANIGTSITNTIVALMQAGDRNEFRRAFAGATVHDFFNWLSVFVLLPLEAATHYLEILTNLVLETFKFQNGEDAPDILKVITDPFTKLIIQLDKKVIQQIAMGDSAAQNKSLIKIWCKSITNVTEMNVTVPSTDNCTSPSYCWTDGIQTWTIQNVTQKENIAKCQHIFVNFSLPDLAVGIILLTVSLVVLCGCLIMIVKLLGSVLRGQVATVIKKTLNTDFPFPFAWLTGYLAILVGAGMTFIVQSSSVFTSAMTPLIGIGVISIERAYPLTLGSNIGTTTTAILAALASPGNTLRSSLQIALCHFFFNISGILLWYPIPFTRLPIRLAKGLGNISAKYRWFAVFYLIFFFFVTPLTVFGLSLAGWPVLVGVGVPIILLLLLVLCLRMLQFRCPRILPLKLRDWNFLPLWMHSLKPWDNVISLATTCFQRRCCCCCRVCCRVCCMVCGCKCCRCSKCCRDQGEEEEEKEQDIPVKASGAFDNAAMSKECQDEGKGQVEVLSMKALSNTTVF
Experiment: Flow cytometry binding to HEK293-6e cells transfected with mouse NaPi2b (Example 5)
Details: transfected HEK293-6e cells, 18-24 hours at 4° C.
Method: The binding cross-reactivity of humanized antibody variant v29456 to human, cynomolgus and mouse NaPi2b was assessed by flow cytometry using HEK293-6e transfected cells.
Briefly, HEK293-6e cells were transfected for ˜24 hours to transiently express human NaPi2b, cynomolgus or mouse NaPi2b, at 1 μg of DNA per 1 million cells. Following transfection, 50,000 cells per well were seeded in V-bottom 96-well plates and incubated with 200 nM of primary antibody for 18-24 hours at 4° C. to prevent internalization. Post-incubation, cells were washed and stained with anti-Human IgG Fc AF647 conjugate (Jackson Immuno Research Labs, West Grove, PA, Cat. No. 109-605-098, Lot. No. 124868) at 4° C. for 1 hour. Following staining and washing, fluorescence was detected by flow cytometry on BD LSRFortessa™ Cell Analyzer (BD Biosciences, Franklin Lake, NJ) with 10,000 minimum events collected per well. The AF647/APC-A GeoMean (fluorescence signal geometric mean, proportional to anti-Human AF647 binding) was calculated for the live singlet cell population for each primary antibody using FlowJo™ v8 software (BD Biosciences, Franklin Lake, NJ). The Bmax and Kd of each primary antibody were calculated using GraphPad Prism Version 9 (GraphPad Software, San Diego, CA)

Bmax (APC-A GeoMean), Ms NaPi2b: 2,062 APC-A GeoMean
Kd (highest antibody concentration 200 nM, read-out: Apparent Kd (nM), Ms NaPi2b): 10.6 nM
B1: v29456: humanized anti-NaPi2b IgG1/kappa antibody H1L2; VH SEQ ID NO:24, VL SEQ ID NO:29 (antibody, V domains shown)
VH: QVQLVQSGAEVKKPGASVKVSCKASGFTFTSYNVHWVRQAPGQGLEWMGAISPGNGDLSYAQKFQGRVTMTRDTSTSTVYMELSSLRSEDTAVYYCARGRTGMGAVDYWGQGTLVTVSS
VL: DVQMTQSPSSLSASVGDRVTITCRASQDVYSYLNWYQQKPGKAVKLLIYYTSRLQSGVPSRFSGSGSGTDYTLTISSLQPEDFATYYCQQYNIFPWTFGQGTKLEIK
modifications: v29452, v29456, v29460 VH (H1); v29453, v29454, v29455, v29456 VL (L2)
